{"source": "patent US12565520B2", "about": "“Chemically-stabilized allosteric modulators of leucine-rich repeat kinase 2 (LRRK2)” (UNIVERSITY OF GEORGIA RESEARCH FOUNDATION, INC., priority 2020, dated 2026)", "binders": {"B1": {"name": "FAM-labeled LCIP1 scramble (peptide)", "peptide": "{FAM″-PEG3″}-GKWEK[S5]GEL[S5]KL-NH2", "modifications": "staple 6-10", "notes": "Scrambled control of LCIP1; also called scrambled peptide control"}, "B2": {"name": "FAM-labeled LRIP4 scramble (peptide)", "peptide": "{FAM″-PEG3″}-Q[Nle]DKAESKNKERKLC[S5]TIK[S5]-NH2", "modifications": "staple 16-20", "notes": "Scrambled control of LRIP4; also called scrambled peptide control"}, "B3": {"name": "FAM-labeled LCIP1 (peptide)", "peptide": "{FAM″-PEG3″}-KGEGE[S5]LLK[S5]WK-NH2", "modifications": "staple 6-10", "notes": "16"}}, "key": {"[1]": {"molecular_target": "T1, MBP-tagged CORB (human, UniProt Q5S007 1672-1840)", "T1 construct": "range 1672-1840; Purified from E. coli BL21(DE3); also called C-terminal part of the COR domain; His6-MBP-tagged COR-B; not shown: N-terminal His6-MBP tag (pDEST-566)", "assay": "fluorescence polarization, 10 nM FAM-labeled peptide"}, "[2]": {"molecular_target": "T2, MBP-tagged RocCOR LRRK2 protein (human, UniProt Q5S007 1293-1840, limits assumed)", "T2 construct": "domain: RocCOR; Purified from E. coli; FP done in the presence of GTP and MgCl2; also called His6-MBP-tagged RocCOR; not shown: N-terminal His6-MBP tag", "T2 sequence (looked up)": "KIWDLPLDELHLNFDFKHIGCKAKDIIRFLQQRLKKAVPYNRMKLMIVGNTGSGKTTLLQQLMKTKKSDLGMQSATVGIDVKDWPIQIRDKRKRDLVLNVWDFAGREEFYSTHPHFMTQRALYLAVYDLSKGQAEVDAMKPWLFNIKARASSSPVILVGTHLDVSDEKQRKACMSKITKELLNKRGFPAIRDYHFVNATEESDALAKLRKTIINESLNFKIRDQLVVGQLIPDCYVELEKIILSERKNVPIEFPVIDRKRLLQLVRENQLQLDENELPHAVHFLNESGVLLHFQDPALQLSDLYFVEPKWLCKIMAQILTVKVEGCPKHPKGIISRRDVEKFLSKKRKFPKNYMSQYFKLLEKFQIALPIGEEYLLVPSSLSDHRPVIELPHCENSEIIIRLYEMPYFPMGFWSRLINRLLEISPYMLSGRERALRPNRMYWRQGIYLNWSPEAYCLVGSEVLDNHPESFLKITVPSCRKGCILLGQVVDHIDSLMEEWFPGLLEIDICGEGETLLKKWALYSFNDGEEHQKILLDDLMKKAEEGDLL", "assay": "fluorescence polarization, 10 nM FAM-labeled peptide"}, "[3]": {"molecular_target": "T1, MBP-tagged CORB", "assay": "fluorescence polarization, 10 nM FAM-labeled peptide, MBP-CORB titrated", "protocol": "Fluorescence Polarization (FP) Assays. […] Each FAM-labeled peptide was plated at a final in-well concentration of 10 nM in 384-well microtiter plates. 1:2 dilutions of the protein were then performed from a concentration range of 5 μM to 1 nM. For each peptide: protein interaction, a range of at least 10 protein concentrations was examined, and each concentration was performed in triplicate. The assay was performed in FP buffer (20 mM MOPS pH 7, 150 mM NaCl, and 0.005% CHAPS) at room temperature. The peptide:protein mixture was incubated at room temperature for 2 hours with readings taken every 30 minutes. The final readings were obtained at 2 hours.\nThe binding affinities of these two peptides towards LRRK2 was measured using fluorescence polarization (FP). Two MBP-tagged protein constructs, CORB and RocCOR, were purified and plated in concentrations ranging from 5 μM to 1 nM along with 10 nM FAM-labeled peptide, 2 mM GTP and 10 mM MgCl_2."}}, "note": "Positions of bridges follow the written chain, without caps; N, C: chain ends. Non-standard residues stand in square brackets, D forms with d. Primed or numbered codes have the meaning given here. PEG3″ = N-terminal PEG3 linker; FAM″ = 5,6-carboxyfluorescein; S5 = C=CCCC[C@](C)(N)C(=O)O; Nle = CCCC[C@H](N)C(=O)O"}
{"binder": "B1", "values": [{"measurement": "binding result", "setting": "[1]", "value": "no binding (tested: protein 5 µM to 1 nM)"}]}
{"binder": "B2", "values": [{"measurement": "binding result", "setting": "[2]", "value": "no binding (tested: protein 5 µM to 1 nM)"}]}
{"binder": "B3", "values": [{"measurement": "Kd", "setting": "[3]", "value": 1, "unit": "µM"}]}
